B1: NLAG3-HDB323-S161 (antibody, human IgG1, V domains shown)
VH: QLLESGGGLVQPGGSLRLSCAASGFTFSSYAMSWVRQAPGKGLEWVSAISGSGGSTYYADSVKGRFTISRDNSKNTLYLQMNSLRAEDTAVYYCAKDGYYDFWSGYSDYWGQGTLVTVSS
VL: AIQLTQSPSSLSASVGDRVTITCRASEGISGWLAWYQQIPGKAPKLLIYAASSLETGVPSRFSGSGYGTDFTLTISSLQPEDFATYYCQQADSFPFTFGPGTKVEIKR
notes: Short label tied by its unique suffix
B2: NLAG3-HDB169-S128 (antibody, human IgG1, V domains shown)
VH: QVQLVQSGAEVKKPGSSVKVSCKASGGTFSSYAISWVRQAPGQGLEWMGGIIPIFGTANYAQKFQGRVTITADESTSTAYMELSSLRSEDTAVYYCARDAGPVGYYGMDVWGQGTMVTVSS
VL: AIQMTQSPSSLSASVGDRVTITCRASQGISSWLAWYQQKPGKAPKLLIYAASSLQSGVPSRFSGSGSGTDFTLTISRLQPEDFATYYCQQAKSFPLTFGGGTKVEIKR
notes: as for B1
B3: NLAG3-HDB169-S120 (antibody, human IgG1, V domains shown)
VH: QVQLVQSGAEVKKPGSSVKVSCKASGGTFSSYAISWVRQAPGQGLEWMGGIIPIFGTANYAQKFQGRVTITADESTSTAYMELSSLRSEDTAVYYCARSGDRYDFWSGYWGQGTLVTVSS
VL: EIVLTQSPSSVSASVGDRVTITCRASRGISSWLAWYQQKPGKAPKLLIYAASTLQSGVPSRFSGSGSGTDFTLTISSLQPEDFATYYCQQAKSFPLTFGGGTKVEIKR
notes: as for B1
B4: NLAG3-HDB169-S136 (antibody, human IgG1, V domains shown)
VH: QVQLVQSGAEVKKPGSSVKVSCKASGGTFSSYAISWVRQAPGQGLEWMGGIIPIFGTANYAQKFQGRVTITADESTSTAYMELSSLRSEDTAVYYCTRGQDSTWYSSFDYWGQGTLVTVSS
VL: AIRMTQSPSSLSASVGDRVTITCRASQSISSYLNWYQQKPGKAPNLLIYAVSTLQSGVPSRFSGSGSGTVFTLTISSLQPEDFATYFCQQGNSFPLTFGGGTKVEIKR
notes: as for B1
B5: NLAG3-HDB169-S24 (antibody, human IgG1, V domains shown)
VH: QVQLVQSGAEVKKPGSSVKVSCKASGGTFSSYAISWVRQAPGQGLEWMGGIIPIFGTANYAQKFQGRVTITADESTSTAYMELSSLRSEDTAVYYCTREPHFDYWGQGTLVTVSS
VL: EIVMTQSPSSLSASVGDRVTITCQASQDISNYLNWYQQKPGKAPKLLIYDASNLETGVPSRFSGSGSGTEFTLTISSLRPEDFATYFCQQADSFPITFGQGTRLEIKR
notes: as for B1
B6: NLAG3-HDB323-S20 (antibody, human IgG1, V domains shown)
VH: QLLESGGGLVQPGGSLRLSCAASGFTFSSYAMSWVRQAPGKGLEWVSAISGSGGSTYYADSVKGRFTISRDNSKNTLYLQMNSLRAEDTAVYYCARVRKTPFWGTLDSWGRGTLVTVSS
VL: VIWMTQSPSSLSASVGDRVTITCRASQGVSSYLAWYQQKPGKAPKLLIYAASSLQSGVPSRFSGSGSGTEFTLTISSLQPEDFATYYCQQTNWFPLTFGPGTRLEIKR
notes: Human IgG1 / kappa (pFUSEss-CHIg-hG1, pFUSE2ss-CLIg-hk); Short label tied by its unique suffix
B7: NLAG3-HDB169-S87 (antibody, human IgG1, V domains shown)
VH: QVQLVQSGAEVKKPGSSVKVSCKASGGTFSSYAISWVRQAPGQGLEWMGGIIPIFGTANYAQKFQGRVTITADESTSTAYMELSSLRSEDTAVYYCAKDIRWYYGMDVWGQGTTVTVSS
VL: DIVMTQSPSSVSAFVGDRVTITCRASQGVSSWLAWFQQKPGKAPKLLIYAASTLQSGVPSRFSGRGYGTEFTLTISSLQPEDLATYYCQQVKSFPLTFGGGTKVDIKR
notes: as for B1
B8: A1 (antibody, V domains shown)
VH: EVQLVESGGGLVQPGGSLRLSCAASGFTFSSYDMSWVRQAPGKSLEWVATISDAGGYIYYRDSVKGRFTISRDNAKNSLYLQMNSLRDEDTAVYICARELLHRYALDYWGQGTTVTVSS
VL: DIQMTQSPSSLSASVGDRVTITCKASQDVTPAVAWYQQKPGKAPKLLIYSTSSRYTGVPSRFSGSGSGTDFTFTISSLQPEDIATYYCQQHYTTPLTFGQGTKLEIK
B9: B3 (antibody, V domains shown)
VH: EVQLVESGGGLVQPGGSLRLSCAASGFTFSSYDMSWVRQAPGKSLEWVATISDAGGYIYYRDSVKGRFTISRDNAKNSLYLQMNSLRDEDTAVYICAREFGKRYALDYWGQGTTVTVSS
VL: DIQMTQSPSSLSASVGDRVTITCKAKQDVTPAVAWYQQKPGKAPKLLIYSTSSRYTGVPSRFSGSGSGTDFTFTISSLQPEDIATYYCMQHYTTPLTFGQGTKLEIK
B10: C6 (antibody, V domains shown)
VH: EVQLVESGGGLVQPGGSLRLSCAASGFTFSSYDMSWVRQAPGKSLEWVATISDAGGYIYYRDSVKGRFTISRDNAKNSLYLQMNSLRDEDTAVYICARELYFRYALDYWGQGTTVTVSS
VL: DIQMTQSPSSLSASVGDRVTITCKASQDVTPAVAWYQQKPGKAPKLLIYSTSSRYTGVPSRFSGSGSGTDFTFTISSLQPEDIATYYCQQHYTTPLTFGQGTKLEIK
B11: A2 (antibody, V domains shown)
VH: EVQLVESGGGLVQPGGSLRLSCAASGFTFSSYDMSWVRQAPGKSLEWVATISDAGGYIYYRDSVKGRFTISRDNAKNSLYLQMNSLRDEDTAVYICARELRGRYALDYWGQGTTVTVSS
VL: DIQMTQSPSSLSASVGDRVTITCKASQDVTPAVAWYQQKPGKAPKLLIYSTSSRYTGVPSRFSGSGSGTDFTFTISSLQPEDIATYYCQQHYTTPLTFGQGTKLEIK
B12: A3 (antibody, V domains shown)
VH: EVQLVESGGGLVQPGGSLRLSCAASGFTFSSYDMSWVRQAPGKSLEWVATISDAGGYIYYRDSVKGRFTISRDNAKNSLYLQMNSLRDEDTAVYICAREFGKRYALDYWGQGTTVTVSS
VL: DIQMTQSPSSLSASVGDRVTITCKASQDVTPAVAWYQQKPGKAPKLLIYSTSSRYTGVPSRFSGSGSGTDFTFTISSLQPEDIATYYCQQHSDAPLTFGQGTKLEIK
B13: C4 (antibody, V domains shown)
VH: EVQLVESGGGLVQPGGSLRLSCAASGFTFSSYDMSWVRQAPGKSLEWVATISDAGGYIYYRDSVKGRFTISRDNAKNSLYLQMNSLRDEDTAVYICAREFGKRYALDSWGQGTTVTVSS
VL: DIQMTQSPSSLSASVGDRVTITCKASQDVWPAVAWYQQKPGKAPKLLIYSTSSRYTGVPSRFSGSGSGTDFTFTISSLQPEDIATYYCQQHSTTPLTFGQGTKLEIK
B14: B1 (antibody, V domains shown)
VH: EVQLVESGGGLVQPGGSLRLSCAASGFTFSSYDMSWVRQAPGKSLEWVATISDAGGYIYYRDSVKGRFTISRDNAKNSLYLQMNSLRDEDTAVYICAREIFNRYALDYWGQGTTVTVSS
VL: DIQMTQSPSSLSASVGDRVTITCKASQDVTPAVAWYQQKPGKAPKLLIYSTSSRYTGVPSRFSGSGSGTDFTFTISSLQPEDIATYYCQQHYTTPLTFGQGTKLEIK
B15: C3 (antibody, V domains shown)
VH: EVQLVESGGGLVQPGGSLRLSCAASGFTFSSYDMSWVRQAPGKSLEWVATISDAGGYIYYRDSVKGRFTISRDNAKNSLYLQMNSLRDEDTAVYICARELHFRYALDYWGQGTTVTVSS
VL: DIQMTQSPSSLSASVGDRVTITCKASQDVTPAVAWYQQKPGKAPKLLIYSTSSRYTGVPSRFSGSGSGTDFTFTISSLQPEDIATYYCQQHYTTPLTFGQGTKLEIK
B16: 147H chimeric antibody (antibody, V domains shown)
VH: QVQLQQSGSELVRPGTSVKISCKASGYTFTNYWLGWIKQRPGHGLEWIGDIYPGGDYINYNEKFKGKATLSADTSSSTAYMQLSSLTSEDSAVYFCARPNLPGDYWGQGTSVTVSS
VL: DIVMTQAAFSNPVTLGTSASISCRSSKSLLHSNGITYLYWYLQKPGQSPQLLIYQVSNLASGVPGRFSGSGSGTDFTLRISRVEAEDVGVYYCAQNLELPWTFGGGTKLEIK

The values that follow come from patent publication US20220363763A1 (ABL BIO, published 2022).

T2 sequence (Q9NZQ7 19-239 limits assumed): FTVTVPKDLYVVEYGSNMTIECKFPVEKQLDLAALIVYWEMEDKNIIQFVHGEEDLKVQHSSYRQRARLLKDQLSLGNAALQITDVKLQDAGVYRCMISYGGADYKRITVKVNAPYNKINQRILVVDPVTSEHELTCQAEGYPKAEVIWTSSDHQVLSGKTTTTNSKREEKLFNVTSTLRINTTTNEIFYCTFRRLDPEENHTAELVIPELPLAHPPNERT

One assay addresses T1, recombinant his-tag human LAG3-ECD protein (human, UniProt P18627 23-450).
T1 construct: extracellular domain; not shown: his tag
T1 sequence (looked up): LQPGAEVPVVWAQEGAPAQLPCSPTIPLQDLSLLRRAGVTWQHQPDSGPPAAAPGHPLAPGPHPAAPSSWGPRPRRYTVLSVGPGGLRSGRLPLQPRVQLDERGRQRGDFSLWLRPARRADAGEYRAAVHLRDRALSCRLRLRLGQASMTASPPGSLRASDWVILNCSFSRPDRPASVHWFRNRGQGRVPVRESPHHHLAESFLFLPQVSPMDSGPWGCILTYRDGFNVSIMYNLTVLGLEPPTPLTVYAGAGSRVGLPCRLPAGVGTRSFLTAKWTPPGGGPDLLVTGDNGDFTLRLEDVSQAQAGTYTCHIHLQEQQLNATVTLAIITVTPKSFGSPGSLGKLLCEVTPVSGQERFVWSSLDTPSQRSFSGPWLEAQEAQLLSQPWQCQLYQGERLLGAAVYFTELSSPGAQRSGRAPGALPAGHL
The experiment in a line: SPR Biacore T200, antibody captured by anti-human Fc, LAG3-ECD-his injected. The method, then: The binding of the S20, S24, S27, S31, S87, S119, S120, S128, S136, S161 and T99 antibodies to recombinant his-tag human LAG3-ECD protein was examined by Biacore T200 using a capture method. Anti-LAG3 antibodies were captured using anti-human Fc antibody. The anti-human Fc antibody was coated on chip. Serial concentrations of his-tag human LAG3-ECD protein (0-4 nM) were injected over capture antibodies at the flow rate of 30 μl/min. The dissociation phase was 900 s or 550 s. The Biacore results for the anti-LAG3 antibodies have shown that these anti-LAG3 antibodies are high affinity binder to human LAG3.
A word on the Kd: it is the concentration at which binding is half-saturated. By koff is commonly meant the rate constant with which the complex falls apart. Usually kon stands for the second-order rate constant of association. For the molecule B1, the dissociation constant Kd came to 0.892 nM, the dissociation rate constant (koff) was determined as 0.000553 s⁻¹ and the kon amounted to 620000 M⁻¹ s⁻¹.
On the same counts, the results for B2 are 0.815 nM, 0.000817 s⁻¹ and 1e+06 M⁻¹ s⁻¹.
On the same counts, the results for B3 are 1.88 nM, 0.00264 s⁻¹ and 1.4e+06 M⁻¹ s⁻¹.
For B4 the same measures were 0.104 nM, 8.27e-05 s⁻¹ and 798000 M⁻¹ s⁻¹.
For the molecule B5, the Kd worked out at 6.73 nM, the off-rate constant (koff) was found to be 0.012 s⁻¹ and the kon amounted to 1.79e+06 M⁻¹ s⁻¹.
For B6 the same measures were 0.0443 nM, 7.33e-06 s⁻¹ and 165000 M⁻¹ s⁻¹.
Turning to B7, the dissociation constant Kd worked out at 0.00251 nM, the koff worked out at 2.33e-06 s⁻¹ and the kon worked out at 928000 M⁻¹ s⁻¹.

Another assay concerns the target T2, human PD-L1 (construct not stated) (human, UniProt Q9NZQ7 19-239, limits assumed).
T2 construct: also called B7-H1 (PD-L1); PD-L1 protein
As to the kind of experiment: SPR Biacore, affinity ranking. In general terms: SPR reads the build-up and loss of mass on a sensor chip optically.
For B8, binding was put at a Kd of 1.36 nM, the off-rate constant (koff) turned out to be 0.000276 s⁻¹ and the kon was found to be 203000 M⁻¹ s⁻¹.
As to B9, the Kd turned out to be 2.49 nM, the koff was determined as 0.000296 s⁻¹ and the association rate constant (kon) worked out at 119000 M⁻¹ s⁻¹.
In turn, B10 returned a Kd of 1.63 nM, a koff of 0.000334 s⁻¹ and a kon of 206000 M⁻¹ s⁻¹.
For B11, binding was characterised by a dissociation constant (Kd) of 2.55 nM, the koff turned out to be 0.000475 s⁻¹ and the kon turned out to be 187000 M⁻¹ s⁻¹.
On the same counts, the results for B12 are 1.49 nM, 0.000324 s⁻¹ and 218000 M⁻¹ s⁻¹.
B13 came in with a Kd of 4.5 nM, a dissociation rate constant (koff) of 0.000506 s⁻¹ and an on-rate (kon) of 113000 M⁻¹ s⁻¹.
On the same counts, the results for B14 are 1.6 nM, 0.000261 s⁻¹ and 163000 M⁻¹ s⁻¹.
On the same counts, the results for B15 are 1.37 nM, 0.000299 s⁻¹ and 218000 M⁻¹ s⁻¹.

The next assay has as its target T3, human LAG3 (construct not stated) (human, UniProt P18627 23-450, limits assumed).
T3 construct: also called human LAG3 protein; antigen
T3 sequence (looked up): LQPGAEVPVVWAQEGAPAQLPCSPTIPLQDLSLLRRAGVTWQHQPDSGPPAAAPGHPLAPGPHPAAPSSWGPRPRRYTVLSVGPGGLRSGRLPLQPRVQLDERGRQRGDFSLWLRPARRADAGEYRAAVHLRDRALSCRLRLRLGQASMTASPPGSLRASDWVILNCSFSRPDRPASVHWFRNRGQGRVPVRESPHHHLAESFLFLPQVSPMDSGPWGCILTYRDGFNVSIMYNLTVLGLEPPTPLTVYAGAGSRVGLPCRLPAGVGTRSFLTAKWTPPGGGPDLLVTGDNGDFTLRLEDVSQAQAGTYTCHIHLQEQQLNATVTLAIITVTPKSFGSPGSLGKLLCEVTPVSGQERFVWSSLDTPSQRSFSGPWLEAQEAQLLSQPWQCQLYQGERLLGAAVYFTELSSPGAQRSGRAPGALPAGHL
The experiment in a line: BLI Octet Red 96, full kinetics, antigen 50-3.125 nM. How it is done:
The binding affinity was calculated by software in Octet® RED96 System.
Background: In BLI a coated tip is dipped into the sample, and binding shifts an interference pattern.
Molecule B16 came in with a Kd of 27.1 nM, a koff of 0.00217 s⁻¹ and an on-rate (kon) of 80100 M⁻¹ s⁻¹.
